Results as given in paper PMC2583105 (The EMBO Journal, 2008).
Residues, ends and D or L forms follow the SMILES beside them.

Columns and labels:
[1] = biological target: LatB-bound G-actin (rabbit skeletal muscle actin) (Oryctolagus cuniculus, UniProt P68135); assay: Fluorescence anisotropy assay of RPEL^MAL:G-actin interaction; format: binding; settings: ratio of Kd values from fluorescence anisotropy
[2] = biological target: FITC-conjugated RPEL1^MAL peptide, MAL(67–98), wild type (mouse); assay: fluorescence polarisation
[3] = biological target: FITC-conjugated RPEL3^MAL peptide, MAL(155–186), wild type (mouse); assay: fluorescence polarisation
[4] = biological target: FITC-conjugated RPEL1^MAL peptide, R81 and R82 both to alanine (mouse); assay: fluorescence polarisation
[5] = biological target: FITC-conjugated RPEL1^MAL peptide, alanine at R82 (the position of the conserved RPEL proline) (mouse); assay: fluorescence polarisation
[6] = biological target: FITC-conjugated RPEL1^MAL peptide, E86A (mouse); assay: fluorescence polarisation
[7] = biological target: FITC-conjugated RPEL2^MAL peptide, E130A (mouse); assay: fluorescence polarisation
[8] = biological target: FITC-conjugated RPEL2^MAL peptide, P126 replaced with arginine (mouse); assay: fluorescence polarisation
[9] = biological target: FITC-conjugated RPEL1^MAL peptide, R81A (mouse); assay: fluorescence polarisation
[10] = biological target: FITC-conjugated 'RPEL2-like' RPEL3^MAL peptide, G171/P172 replaced by E and R (mouse); assay: fluorescence polarisation
[11] = biological target: FITC-conjugated RPEL2^MAL peptide, MAL(111–142), wild type (mouse); assay: fluorescence polarisation
[12] = biological target: FITC-conjugated RPEL2^MAL peptide, P126A (mouse); assay: fluorescence polarisation
[13] = biological target: FITC-conjugated RPEL1^MAL peptide, α2^AAA mutant (mouse); assay: fluorescence polarisation

Compound: CC[C@H](C)[C@H](NC(=O)[C@H](CCCCN)NC(=O)[C@H](CCCNC(=N)N)NC(=O)[C@H](CCCCN)NC(=O)[C@H](CC(C)C)NC(=O)[C@H](Cc1ccc(O)cc1)NC(=O)[C@H](CC(=O)O)NC(=O)[C@H](CCC(=O)O)NC(=O)[C@@H](NC(=O)[C@H](CCCNC(=N)N)NC(=O)[C@H](C)NC(=O)[C@H](CCCNC(=N)N)NC(=S)Nc1ccc2c(c1)C(=O)OC21c2ccc(O)cc2Oc2cc(O)ccc21)[C@@H](C)O)C(=O)N[C@@H](CCCNC(=N)N)C(=O)N[C@@H](CO)C(=O)N[C@@H](CCCNC(=N)N)C(=O)N[C@@H](C)C(=O)N[C@@H](CCC(=O)O)C(=O)N[C@@H](CCCNC(=N)N)C(=O)N[C@@H](C)C(=O)N[C@@H](CCC(=O)O)C(=O)N[C@@H](CC(C)C)C(=O)N[C@H](C(=O)N[C@@H](CCCNC(=N)N)C(=O)N[C@@H](CCSC)C(=O)N[C@@H](Cc1c[nH]cn1)C(=O)N[C@H](C(=O)N[C@@H](CC(C)C)C(=O)N[C@@H](CCC(=O)O)C(=O)N[C@@H](CCC(=O)O)C(=O)N[C@H](C(=O)N[C@@H](CO)C(=O)N[C@@H](C)C(=O)O)[C@@H](C)O)[C@@H](C)CC)C(C)C [RPEL2 P126A] (HELM PEPTIDE1{[O=C1OC2(c3ccc(O)cc3Oc3cc(O)ccc32)c2ccc(NC(=S)[*:2])cc21].R.A.R.T.E.D.Y.L.K.R.K.I.R.S.R.A.E.R.A.E.L.V.R.M.H.I.L.E.E.T.S.A}$$$$V2.0; C-terminus assumed)
- Fold reduction of actin-binding affinity relative to the wild-type peptide [1]: 16 fold

Compound: rabbit skeletal muscle G-actin bound to latrunculin B (LatB) and ATP (from UniProt P68135 1-377) (natural protein)
- Kd [2]: 1 µM
- Kd [3]: 28.9 µM
- Kd [4]: 44.5 µM
- Kd [5]: 3.7 µM
- Kd [6]: 2.7 µM
- Kd [7]: 1.9 µM
- Kd [8]: 19.5 µM
- Kd [9]: 17.7 µM
- Kd [10]: 4.8 µM
- Kd [11]: 1.9 µM
- Kd [12]: 30.8 µM
- Kd [13]: 24 µM

Compound: CC[C@H](C)[C@H](NC(=O)CNC(=O)[C@H](CCC(N)=O)NC(=O)[C@H](CO)NC(=O)[C@@H](NC(=O)[C@H](CC(C)C)NC(=O)[C@H](CCC(=O)O)NC(=O)[C@H](CCC(=O)O)NC(=O)[C@H](CCCNC(=N)N)NC(=O)[C@@H](NC(=O)[C@H](C)NC(=O)[C@H](CCCNC(=N)N)NC(=O)[C@H](CCC(N)=O)NC(=O)[C@H](CCC(N)=O)NC(=O)[C@H](CC(C)C)NC(=O)[C@H](CCCCN)NC(=O)[C@H](CC(C)C)NC(=O)[C@H](CCC(N)=O)NC(=O)[C@H](CC(C)C)NC(=O)[C@@H](NC(=O)[C@H](CC(N)=O)NC(=O)[C@H](CCCCN)NC(=O)[C@H](CCCNC(=N)N)NC(=O)[C@H](CCC(=O)O)NC(=O)[C@H](CO)NC(=O)[C@H](CC(C)C)NC(=S)Nc1ccc2c(c1)C(=O)OC21c2ccc(O)cc2Oc2cc(O)ccc21)C(C)C)[C@@H](C)O)C(C)C)C(=O)N[C@@H](CCSC)C(=O)N1CCC[C@H]1C(=O)N1CCC[C@H]1C(=O)N[C@@H](CC(C)C)C(=O)N[C@@H](CCCCN)C(=O)N[C@@H](CO)C(=O)O [RPEL1 R82A] (HELM PEPTIDE1{[O=C1OC2(c3ccc(O)cc3Oc3cc(O)ccc32)c2ccc(NC(=S)[*:2])cc21].L.S.E.R.K.N.V.L.Q.L.K.L.Q.Q.R.A.T.R.E.E.L.V.S.Q.G.I.M.P.P.L.K.S}$$$$V2.0; C-terminus assumed)
- Fold reduction of actin-binding affinity relative to the wild-type peptide [1]: 3.5 fold
